Here are results for 9 molecules from patent publication US20220119513A1 (ZOETIS SERVICES, published 2022).

In assay [1] the target is T1, canine TGFβ3 (canine, UniProt A0A8I3S1P1 346-457).
T1 sequence: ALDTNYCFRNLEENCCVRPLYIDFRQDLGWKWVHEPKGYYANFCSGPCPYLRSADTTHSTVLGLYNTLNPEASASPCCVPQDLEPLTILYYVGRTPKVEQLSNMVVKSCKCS
As to the kind of experiment: SPR.

The target of assay [2] is T2, canine TGFβ2 (canine, UniProt A0A8I3PZZ6 331-442).
T2 sequence: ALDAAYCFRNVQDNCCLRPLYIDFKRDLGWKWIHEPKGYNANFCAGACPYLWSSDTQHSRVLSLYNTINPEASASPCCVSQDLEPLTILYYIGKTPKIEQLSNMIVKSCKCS
In words: SPR.

For assay [3], the target named is canine TGFβ1 (canine, UniProt P54831 279-390, limits assumed). In words: SPR, TGFβ on chip. From the text:
To avoid affinity differences associated with differential surface preparation that can occur when immobilizing antibodies to surfaces, TGFβ1, TGFβ2, and TGFβ3 (R&D Systems) were directly conjugated to the individual surface. Immobilization was obtained by amine coupling […] using N-hydroxysuccinimide (NHS)/1-Ethyl-3-(3-dimethylaminopropyl) carbodiimide (EDC) chemistry. Chips were quenched with ethanolamine and the affinity with which all candidate mAbs bound to the immobilized TGFβ was evaluated. All curves were fit to a 1:1 model. Affinities <10⁻¹¹ are below the lower limit of quantitation of detection for the instrument.

The target in assay [4] is T3, TGFβ2 (R&D Systems).
T3 construct: also called TGFB2
T3 sequence (P61812 303-414, species assumed, looked up): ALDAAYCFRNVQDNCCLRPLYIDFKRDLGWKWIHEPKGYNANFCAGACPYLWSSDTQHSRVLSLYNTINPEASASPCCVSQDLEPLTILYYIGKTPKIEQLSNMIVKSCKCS
In words: SPR full titration.

The target in assay [5] is T4, TGFβ1 (R&D Systems).
T4 construct: also called TGFB1
As to the kind of experiment: SPR full titration.

The target in assay [6] is T5, TGFβ3 (R&D Systems) (Homo sapiens (Human), UniProt P10600 301-412, Active TGFβ3 is a disulfide-linked homodimer of this chain; one copy is given.).
T5 construct: also called TGFB3
T5 sequence: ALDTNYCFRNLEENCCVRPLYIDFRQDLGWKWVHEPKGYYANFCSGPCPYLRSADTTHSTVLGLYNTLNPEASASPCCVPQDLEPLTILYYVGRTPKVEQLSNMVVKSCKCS
As to the kind of experiment: SPR full titration.

In assay [7] the target is T3, TGFβ2 (R&D Systems). In words: cell-based or functional assay.
For assay [8], the target named is T4, TGFβ1 (R&D Systems). As to the kind of experiment: cell-based or functional assay.
The target in assay [9] is T5, TGFβ3 (R&D Systems). As to the kind of experiment: cell-based or functional assay.
Assay [10] addresses T5, TGFβ3 (R&D Systems). As to the kind of experiment: SPR.
In assay [11] the target is T4, TGFβ1 (R&D Systems). In words: cell-based or functional assay. This is another data set of the same source.

Read-outs that look alike come from different tables or passages of the source.

Chain of canine TGFβ1 (P54831 279-390 limits assumed): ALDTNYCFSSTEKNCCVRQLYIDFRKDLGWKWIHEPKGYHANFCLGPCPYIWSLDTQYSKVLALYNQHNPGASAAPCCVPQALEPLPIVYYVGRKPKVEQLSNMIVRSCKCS
T4 sequence (P01137 279-390): as the sequence (P54831 279-390 limits assumed) above

B1: Can04H09 VH3/VL1 (antibody, V domains shown)
VH: EVQLVQSAAEVKKPGASVKVSCKTSGYTFTSSWMNWVQQAPGAGLDWMGQIYPGDGDTNYNGKFKGRVTLTADTSTSTAYMELSSLRAEDTAVYYCARHYDGSTDYWGQGTLVTVSS
VL: DIVMTQNPLSLSVSPGETASISCRASENIYSNLAWFRQKPGQSPQRLIYAATNLADGVPDRFSGSGSGTDFTLRISRVEADDTGVYYCQHFWGTPYTFGQGTK
For the molecule B1, the binding result in [1] and in [2] was “no binding” each time. Further, the Kd in assay [3] is 3980 nM.

B2: Can04H09 VH2/VL1 (antibody, V domains shown)
VH: EVQLVQSAAEVKKPGASVKVSCKTSGYSFTSSWMNWVQQAPGKGLDWMGQIYPGDGDTNYNGKFKGRVTLTADKSTSTAYMELSSLRSEDAAVYYCARHYDGSTDYWGQGTLVTVSS
VL: DIVMTQNPLSLSVSPGETASISCRASENIYSNLAWFRQKPGQSPQRLIYAATNLADGVPDRFSGSGSGTDFTLRISRVEADDTGVYYCQHFWGTPYTFGQGTK
On to B2, for which the binding result in assay [1] and in assay [2] was “no binding” throughout. This molecule also returned a Kd in [3] of 2190 nM.

B3: Can04H09 VH1/VL1 (antibody, V domains shown)
VH: EVQLVQSGAEVKKPGASVKVSCKTSGYTFISSWMNWVRQAPGAGLDWMGQIYPGDGDTNYNGKFKGRVTLTADTSTSTAYMELSSLRAGDIAVYYCARHYDGSTDYWGQGTLVTVSS
VL: DIVMTQNPLSLSVSPGETASISCRASENIYSNLAWFRQKPGQSPQRLIYAATNLADGVPDRFSGSGSGTDFTLRISRVEADDTGVYYCQHFWGTPYTFGQGTK
As to B3, the binding result in assay [1] and in assay [2] was “no binding” throughout. This molecule displayed a Kd in assay [3] of 284 nM.

B4: H1chimK (antibody)
heavy: EVQLVQSGAEVKKPGASVKVSCKTSGYTFITYWMNWVRQAPGAGLDWMGQIFPASGSTNYNEMFEGRVTLTADTSTSTAYMELSSLRAGDIAVYYCARGDGNYALDAMDYWGQGTLVTASTTAPSVFPLAPSCGSTSGSTVALACLVSGYFPEPVTVSWNSGSLTSGVHTFPSVLQSSGLYSLSSMVTVPSSRWPSETFTCNVAHPASKTKVDKPVPKRENGRVPRPPDCPKCPAPEAAGAPSVFIFPPKPKDTLLIARTPEVTCVVVDLDPEDPEVQISWFVDGKQMQTAKTQPREEQFNGTYRVVSVLPIGHQDWLKGKQFTCKVNNKALPSPIERTISKARGQAHQPSVYVLPPSREELSKNTVSLTCLIKDFFPPDIDVEWQSNGQQEPESKYRTTPPQLDEDGSYFLYSKLSVDKSRWQRGDTFICAVMHEALHNHYTQESLSHSPGK
light: DIVLTQTPASLAVSLGQRATISCRASESVDSYGNSFMHWYQQKSGQPPKLLIYLASNLESGVPARFSGSGSRTDFTLTIDPVEADDAATYYCQQNNEDPLTFGAGTKRNDAQPAVYLFQPSPDQLHTGSASVVCLLNSFYPKDINVKWKVDGVIQDTGIQESVTEQDKDSTYSLSSTLTMSSTEYLSHELYSCEITHKSLPSTLIKSFQRSEC
notes: also called canHcLb-VH1/chiHcLb-VL
On to B4, for which the Kd in assay [4] turned out to be 0.683 nM; in assay [5], 6.52 nM; in assay [6] it was 1.03 nM.

B5: H2chimK (antibody)
heavy: EVQLVQSAAEVKKPGASVKVSCKTSGYSFTTYWMNWVQQAPGKGLDWMGQIFPASGSTNYNEMFEGRVTLTVDTSTSTAYMELSSLRAEDAAVYYCARGDGNYALDAMDYWGQGTLVTASTTAPSVFPLAPSCGSTSGSTVALACLVSGYFPEPVTVSWNSGSLTSGVHTFPSVLQSSGLYSLSSMVTVPSSRWPSETFTCNVAHPASKTKVDKPVPKRENGRVPRPPDCPKCPAPEAAGAPSVFIFPPKPKDTLLIARTPEVTCVVVDLDPEDPEVQISWFVDGKQMQTAKTQPREEQFNGTYRVVSVLPIGHQDWLKGKQFTCKVNNKALPSPIERTISKARGQAHQPSVYVLPPSREELSKNTVSLTCLIKDFFPPDIDVEWQSNGQQEPESKYRTTPPQLDEDGSYFLYSKLSVDKSRWQRGDTFICAVMHEALHNHYTQESLSHSPGK
light: DIVLTQTPASLAVSLGQRATISCRASESVDSYGNSFMHWYQQKSGQPPKLLIYLASNLESGVPARFSGSGSRTDFTLTIDPVEADDAATYYCQQNNEDPLTFGAGTKRNDAQPAVYLFQPSPDQLHTGSASVVCLLNSFYPKDINVKWKVDGVIQDTGIQESVTEQDKDSTYSLSSTLTMSSTEYLSHELYSCEITHKSLPSTLIKSFQRSEC
notes: also called canHcLb-VH2/chiHcLb-VL
As to B5, the Kd was found to be 6.62 nM in [4], 16.3 nM in assay [5] and 2.26 nM in [6].

B6: felHclb 1-1WMN (antibody, V domains shown)
VH: QVLLVQSGAEVRTPGASVKIFCKASGYIFITYWMNWVRQSPAQGLEWMGSIFPASGSTSYAQKFQGRLTLTADTSTNTAYMELSSLRSADTAMYYCARGDGNYALDAMDYWGQGTSVTVSS
VL: EIQMTQSPSSLSASPGDRVTITCRASESVDSYGNSFMHWYQQKPGKVPKLLIYLASNLESGVPSRFSGSGSGTDFTLTISSLEPEDAATYYCQQNNEDPLTFGAGT
For the molecule B6, the entries for the “CMVIC pSmad-3, IC50” value in [7], in assay [8] and in assay [9] were 121 nM, 69.7 nM and 10.1 nM, respectively.

B7: fel-TGFβ1-Spec (antibody)
heavy: DVQLVESGGDLVKPGGSLRLTCVASGFTFSSYGMHWVRQAPGKELEWVAVISYDGSIKYYADAVKGRFTISRDNAKNTLYLQMNSLKTEDTATYYCARTGEYSGYDTDPQYSWGQGTTVTVSSASTTAPSVFPLAPSCGTTSGATVALACLVLGYFPEPVTVSWNSGALTSGVHTFPAVLQASGLYSLSSMVTVPSSRWLSDTFTCNVAHPPSNTKVDKTVRKTDHPPGPKPCDCPKCPPPEAAGAPSIFIFPPKPKDTLSISRTPEVTCLVVDLGPDDSDVQITWFVDNTQVYTAKTSPREEQFNSTYRVVSVLPILHQDWLKGKEFKCKVNSKSLPSPIERTISKAKGQPHEPQVYVLPPAQEELSRNKVSVTCLIKSFHPPDIAVEWEITGQPEPENNYRTTPPQLDSDGTYFVYSKLSVDRSHWQRGNTYTCSVSHEALHSHHTQKSLTQSPGK
light: EIQMTQSPSSLSASPGDRVTITCRASQGIGDDLGWYQQKPGKVPKLLIYGTSTLQSGVPSRFSGSGSGTDFTLTISSLEPEDAATYYCLQDSNYPLTFGGGTKRSDAQPSVFLFQPSLDELHTGSASIVCILNDFYPKEVNVKWKVDGVVQNKGIQESTTEQNSKDSTYSLSSTLTMSSTEYQSHEKFSCEVTHKSLASTLVKSFQRSECQRE
notes: also called FelSL501-VH3-9/FelSL501-VL1-1
Regarding B7, the binding result in assay [10] was “no binding”. Moreover, in assay [11], the “CMVIC pSmad-3, IC50” value was found to be 9.03 nM.

B8: fel-TGFβ1_hetero-chimera-1 (antibody)
heavy: DVQLVESGGDLVKPGGSLRLTCVASGFTFSSYGMHWVRQAPGKELEWVAVISYDGSIKYYADAVKGRFTISRDNAKNTLYLQMNSLKTEDTATYYCARTGEYSGYDTDPQYSWGQGTTVTVSSASTTAPSVFPLAPSCGTTSGATVALACLVLGYFPEPVTVSWNSGALTSGVHTFPAVLQASGLYSLSSMVTVPSSRWLSDTFTCNVAHPPSNTKVDKTVRKTDHPPGPKPCDCPKCPPPEAAGAPSIFIFPPKPKDTLSISRTPEVTCLVVDLGPDDSDVQITWFVDNTQVYTAKTSPREEQFNSTYRVVSVLPILHQDWLKGKEFKCKVNSKSLPSPIERTISKAKGQPHEPQVYVLPPAQEELSRNKVSVTCLIKSFHPPDIAVEWEITGQPEPENNYRTTPPQLDSDGTYFVYSKLSVDRSHWQRGNTYTCSVSHEALHSHHTQKSLTQSPGK
light: EIVLTQSPSSLSASVGDRVTITCRASQGIGDDLGWYQQKPGKAPILLIYGTSTLQSGVPSRFSGSGSGTDFTLTINSLQPEDFATYYCLQDSNYPLTFGGGTKRSDAQPSVFLFQPSLDELHTGSASIVCILNDFYPKEVNVKWKVDGVVQNKGIQESTTEQNSKDSTYSLSSTLTMSSTEYQSHEKFSCEVTHKSLASTLVKSFQRSECQRE
For B8, in assay [10], the binding result is “no binding”. The “CMVIC pSmad-3, IC50” value in assay [11] came out at 30.1 nM.

B9: fel-TGFβ1_hetero-chimera-2 (antibody)
heavy: EVQLVESGGGVVQPGRSLRLSCAASGFTFSSYGMHWVRQAPGKELEWVAVISYDGSIKYYADSVKGRFTISRDNSKNTLYLQMNSLRAEDTAVYYCARTGEYSGYDTDPQYSWGQGTTVTVSSASTTAPSVFPLAPSCGTTSGATVALACLVLGYFPEPVTVSWNSGALTSGVHTFPAVLQASGLYSLSSMVTVPSSRWLSDTFTCNVAHPPSNTKVDKTVRKTDHPPGPKPCDCPKCPPPEAAGAPSIFIFPPKPKDTLSISRTPEVTCLVVDLGPDDSDVQITWFVDNTQVYTAKTSPREEQFNSTYRVVSVLPILHQDWLKGKEFKCKVNSKSLPSPIERTISKAKGQPHEPQVYVLPPAQEELSRNKVSVTCLIKSFHPPDIAVEWEITGQPEPENNYRTTPPQLDSDGTYFVYSKLSVDRSHWQRGNTYTCSVSHEALHSHHTQKSLTQSPGK
light: EIQMTQSPSSLSASPGDRVTITCRASQGIGDDLGWYQQKPGKVPKLLIYGTSTLQSGVPSRFSGSGSGTDFTLTISSLEPEDAATYYCLQDSNYPLTFGGGTKRSDAQPSVFLFQPSLDELHTGSASIVCILNDFYPKEVNVKWKVDGVVQNKGIQESTTEQNSKDSTYSLSSTLTMSSTEYQSHEKFSCEVTHKSLASTLVKSFQRSECQRE
Regarding B9, the binding result in assay [10] was “no binding”. Further, the “CMVIC pSmad-3, IC50” value in assay [11] worked out at 11.9 nM.
